Measurements from patent publication US20240301086A1 (APTEVO RESEARCH AND DEVELOPMENT, published 2024).

Experiments:
[1] = target: T1, human CD3ε in the TCR/CD3 complex on Jurkat cells (human, UniProt P07766 23-207); experiment: flow cytometry on Jurkat cells, PE goat anti-human IgG Fc secondary, MFI (median)
T1 construct: whole, on cells; On the cells it stands in the whole TCR/CD3 complex; also called CD3 (+) cells; CD3-expressing Jurkat cells
Protocol: (§1) Constructs were initially tested in CD3ε and PSMA binding assays on Jurkat and C4-2B cells. Cells were labelled at approximately 100,000 cells per well, in 96-well plates, with serial dilutions of bispecific constructs ranging in concentration from of 0.1 to 300 nM, for 30 min on ice. Primary label was followed by washes and incubation with PE-labeled minimum cross species reactive secondary antibody, goat anti-human IgG Fcγ, F(ab′)2 (Jackson Laboratory) for 30 minutes on ice. Washes and incubation were done in staining buffer (PBS with 0.2% BSA and 2 mM EDTA). Cells were collected using an BD™ LSRII or a BD FACSymphony™ flow cytometer (BD Biosciences) and analyzed by FlowJo flow cytometry analysis software. Median fluorescence intensity (MFI) of bound molecules on cells was determined after exclusion of doublets. Results were plotted and nonlinear regression analysis to determine EC50 values was performed using GraphPad Prism 7© graphing and statistics software.

[2] = target: T2, Full-length Human PSMA (TSC435), on cells (human, UniProt Q04609 1-750); experiment: flow cytometry on C4-2B cells, PE goat anti-human IgG Fc secondary, MFI (median)
T2 construct: also called CHOK1SV/huPSMA; PSMA on C4-2B, 22RV1, LNCaP, MDA-PCa-2b cells
Protocol: as §1

[3] = target: T3, Full-length cynomolgus monkey PSMA (TSC308), on cells (cynomolgus monkey, UniProt Q04609 1-750 (human entry)); experiment: flow cytometry on CHO-CynoPSMA cells, Median (PE); drawn table row 'Cyno PSMA binding affinity'
T3 construct: also called cyno PSMA; CHOK1SV/cynoPSMA
T3 chain: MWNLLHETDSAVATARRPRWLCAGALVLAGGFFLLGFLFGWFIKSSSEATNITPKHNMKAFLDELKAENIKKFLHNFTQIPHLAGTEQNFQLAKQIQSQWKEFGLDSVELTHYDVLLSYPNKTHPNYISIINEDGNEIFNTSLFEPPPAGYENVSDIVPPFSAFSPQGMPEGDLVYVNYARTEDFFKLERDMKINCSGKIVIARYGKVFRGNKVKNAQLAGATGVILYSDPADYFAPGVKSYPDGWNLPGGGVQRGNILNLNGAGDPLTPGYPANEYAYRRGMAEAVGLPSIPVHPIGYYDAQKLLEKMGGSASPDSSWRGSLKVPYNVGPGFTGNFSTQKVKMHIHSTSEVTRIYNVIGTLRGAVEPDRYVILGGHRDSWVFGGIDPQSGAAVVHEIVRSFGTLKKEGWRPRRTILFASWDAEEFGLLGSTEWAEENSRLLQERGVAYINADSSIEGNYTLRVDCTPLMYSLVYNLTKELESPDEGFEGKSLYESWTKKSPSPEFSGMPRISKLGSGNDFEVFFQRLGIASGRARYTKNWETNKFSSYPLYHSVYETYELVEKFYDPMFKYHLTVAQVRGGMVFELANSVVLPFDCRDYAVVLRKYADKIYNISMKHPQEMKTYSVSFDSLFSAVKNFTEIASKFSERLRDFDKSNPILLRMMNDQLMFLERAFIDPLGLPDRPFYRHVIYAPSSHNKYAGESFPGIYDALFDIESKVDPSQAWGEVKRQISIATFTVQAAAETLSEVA

[4] = target: T2, Full-length Human PSMA (TSC435), on …; experiment: flow cytometry on C4-2B cells, PE goat anti-human IgG Fc secondary, MFI (median); remark: listed apart in the source
Protocol: as §1

[5] = target: T4, cynomolgus Fcγ receptor III (cynomolgus monkey, UniProt Q8SPW2 17-208); experiment: SPR (Biacore T200), construct amine-coupled, soluble cyno Fcγ receptor as analyte
T4 construct: Called recombinant, soluble; also called Cyno RIII
Protocol: (§2) The Fc region incorporated into anti-PSMA bispecific constructs contained mutations intended to reduce or abolish binding to common human and cynomolgus Fc gamma receptors. SPR experiments were conducted at 25° C. in HBS-EP+ with 0.2% BSA buffer on a Biacore T200 system to evaluate the impact of these mutations on binding. For these experiments, three flow cells of a CM5 sensor chip were immobilized with anti-PSMA bispecifics by standard amine coupling to a response level of ˜2000 RU. A blank immobilization was performed on flow cell #1 for purposes of background signal subtraction. Both human and cynomolgus monkey Fcγ receptors (purchased from R&D Systems) were diluted in HBS-EP+ with 0.2% BSA to 4-6 μM and then flowed as analytes at 30 μL/min for 120 seconds followed by a 240 second dissociation step. No regeneration step was required. Blank-subtracted sensorgrams were visually inspected for binding to each of the Fcγ receptor proteins. […] Attenuated binding to Fcγ receptors IIA (both polymorphic variants) and IIB/C was observed. PSMA01107 and PSMA01108 share the same Fc amino acid sequence and therefore equivalent Fcγ receptor binding behavior was expected.

[6] = target: T2, Full-length Human PSMA (TSC435), on …; experiment: flow cytometry, drawn table 'On- Cell Binding Parameters', row 'Human PSMA binding affinity'
[7] = target: T1, human CD3ε in the TCR/CD3 complex on …; experiment: flow cytometry on Jurkat cells, PE goat anti-human IgG Fc secondary, MFI (median); remark: listed apart in the source
Protocol: as §1

[8] = target: T1, human CD3ε in the TCR/CD3 complex on …; experiment: flow cytometry, drawn table 'On- Cell Binding Parameters', row 'Human CD3 binding affinity'
Protocol: as §1

[9] = target: human Fcγ receptor IIIA, V176 variant (human, UniProt P08637 17-208); experiment: SPR (Biacore T200), construct amine-coupled, Fcγ receptor as analyte
Protocol: as §2

[10] = target: human Fcγ receptor I (human, UniProt P12314 16-288); experiment: as above
Protocol: as §2

[11] = target: human Fcγ receptor IIIB (human, UniProt O75015 17-200); experiment: as above
Protocol: as §2

[12] = target: human Fcγ receptor IIIA, F176 variant (human, UniProt P08637 17-208); experiment: as above
Protocol: as §2

T1 sequence (P07766 23-207, one chain of several): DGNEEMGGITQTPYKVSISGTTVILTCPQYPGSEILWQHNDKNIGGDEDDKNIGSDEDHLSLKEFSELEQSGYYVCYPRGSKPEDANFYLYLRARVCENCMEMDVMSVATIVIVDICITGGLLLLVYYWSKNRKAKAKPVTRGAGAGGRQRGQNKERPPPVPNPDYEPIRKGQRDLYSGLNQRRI
human Fcγ receptor IIIA, V176 variant, sequence (P08637 other isoform, or with tags, fused parts or gaps mutant): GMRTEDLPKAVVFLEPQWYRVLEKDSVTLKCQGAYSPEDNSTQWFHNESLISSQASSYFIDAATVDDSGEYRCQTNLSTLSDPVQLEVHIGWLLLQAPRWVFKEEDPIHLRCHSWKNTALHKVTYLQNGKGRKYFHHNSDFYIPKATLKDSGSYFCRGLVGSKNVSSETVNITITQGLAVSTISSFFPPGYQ
human Fcγ receptor I, sequence (P12314 16-288): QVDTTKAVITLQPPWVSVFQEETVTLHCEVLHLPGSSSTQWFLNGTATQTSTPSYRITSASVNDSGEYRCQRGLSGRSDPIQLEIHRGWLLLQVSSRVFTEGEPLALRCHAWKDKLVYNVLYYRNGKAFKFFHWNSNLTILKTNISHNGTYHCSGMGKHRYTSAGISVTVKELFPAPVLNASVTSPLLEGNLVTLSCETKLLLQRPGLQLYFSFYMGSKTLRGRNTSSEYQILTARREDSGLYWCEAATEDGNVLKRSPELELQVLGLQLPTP
human Fcγ receptor IIIB, sequence (O75015 17-200): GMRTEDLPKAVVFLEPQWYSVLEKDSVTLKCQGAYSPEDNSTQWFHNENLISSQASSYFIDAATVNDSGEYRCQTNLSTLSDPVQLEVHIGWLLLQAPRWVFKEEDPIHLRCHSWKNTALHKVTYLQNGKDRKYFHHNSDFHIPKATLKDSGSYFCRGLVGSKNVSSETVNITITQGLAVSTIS
T4 sequence (Q8SPW2 17-208): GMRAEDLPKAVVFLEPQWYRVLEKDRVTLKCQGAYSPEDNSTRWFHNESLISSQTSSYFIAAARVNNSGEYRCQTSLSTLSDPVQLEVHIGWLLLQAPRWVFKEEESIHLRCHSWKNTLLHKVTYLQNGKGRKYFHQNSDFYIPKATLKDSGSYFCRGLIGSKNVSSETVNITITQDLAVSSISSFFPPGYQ
human Fcγ receptor IIIA, F176 variant, sequence (P08637 17-208, change not shown): as the sequence (P08637 other isoform, or with tags, fused parts or gaps mutant) above, with V160F counted along it

| Binder | EC50 [1] [nM] | EC50 [2] [nM] | EC50 [3] [nM] | Max [3] | EC50 [4] [nM] | binding result [5] | EC50 [6] [nM] | Max [6] | EC50 [7] [nM] | EC50 [8] [nM] | Max [8] | binding result [9] | binding result [10] | binding result [11] | binding result [12] |
| --- | --- | --- | --- | --- | --- | --- | --- | --- | --- | --- | --- | --- | --- | --- | --- |
| TSC266 Anti PSMA scFv x Anti CD3 scFv ADAPTIR (bispecific antibody, The anti-PSMA domain is that of PSMA01012 and the anti-CD3 domain is DRA222; also called unoptimized parent construct; TSC266 control (PSMA × CD3 bispecific protein)) DIQMTQSPSAMSASVGDRVTITCRASKSISKYLAWFQQKPGKVPKLRIHSGSTLQSGVPSRFSGSGSGTEFTLTISSLQPEDFATYYCQQHIEYPWTFGQGTKVEIKRGGGGSGGGGSGGGGSQVQLVQSGAEVKKPGASVKVSCKASGYTFTDYYMHWVRQAPGQGLEWMGYFNPYNDYTRYAQKFQGRVTMTRDTSISTAYMELSSLRSDDTAVYYCARSDGYYDAMDYWGQGTTVTVSSSEPKSSDKTHTCPPCPAPEAAGAPSVFLFPPKPKDTLMISRTPEVTCVVVDVSHEDPEVKFNWYVDGVEVHNAKTKPREEQYNSTYRVVSVLTVLHQDWLNGKAYACAVSNKALPAPIEKTISKAKGQPREPQVYTLPPSRDELTKNQVSLTCLVKGFYPSDIAVEWESNGQPENNYKTTPPVLDSDGSFFLYSKLTVDKSRWQQGNVFSCSVMHEALHNHYTQKSLSLSPGQRHNNSSLNTGTQMAGHSPNSQVQLVESGGGVVQPGRSLRLSCKASGYTFTRSTMHWVRQAPGQGLEWIGYINPSSAYTNYNQKFKDRFTISADKSKSTAFLQMDSLRPEDTGVYFCARPQVHYDYNGFPYWGQGTPVTVSSGGGGSGGGGSGGGGSAQDIQMTQSPSSLSASVGDRVTMTCSASSSVSYMNWYQQKPGKAPKRWIYDSSKLASGVPARFSGSGSGTDYTLTISSLQPEDFATYYCQQWSRNPPTFGGGTKLQITSSS | 2 | 7 | 20 | 6000 | 7 | no binding (tested: 4-6 µM) | 10 | 1400 | 2 | 2 | 15000 | no binding (tested: 4-6 µM) | no binding (tested: 4-6 µM) | no binding (tested: 4-6 µM) | no binding (tested: 4-6 µM) |
| PSMA01107 Anti-PSMA scFv x Fc x linker x Anti CD3 scFv; Anti PSMA scFv x Fc (bispecific antibody, Heterodimer, bivalent for PSMA and monovalent for CD3 (VH-VL scFv at the C-terminus); also called PSMA1107) chain 1: QVQLVQSGAEVKKPGASVKVSCKASGYTFTDYYMHWVRQAPGQGLEWMGYFNPYNDYTRYAQKFQGRVTMTRDTSTSTVYMELSSLRSEDTAVYYCARSDGYYDAMDYWGQGTTVTVSSGGGGSGGGGSGGGGSGGGGSDIQMTQSPSSLSASVGDRVTITCRASKSISKYLAWYQQKPGKAPKLLIHSGSSLESGVPSRFSGSGSGTEFTLTISSLQPDDFATYYCQQHIEYPWTFGQGTKVEIKEPKSSDKTHTCPPCPAPPAAAPSVFLFPPKPKDTLMISRTPEVTCVVVDVSHEDPEVKFNWYVDGVEVHNAKTKPREEQYNSTYRVVSVLTVLHQDWLNGKEYKCAVSNKALPAPIEKTISKAKGQPREPQVYTLPPSRDELTKNQVSLWCLVKGFYPSDIAVEWESNGQPENNYKTTPPVLDSDGSFFLYSKLTVDKSRWQQGNVFSCSVMHEALHNHYTQKSLSLSPGGGGSPSQVQLVQSGAEVKKPGASVKVSCKASGYTFTRSTMHWVRQAPGQGLEWIGYINPSSAYTNYAQKFQGRVTLTADKSTSTAYMELSSLRSEDTAVYYCASPQVHYDYNGFPYWGQGTLVTVSSGGGGSGGGGSGGGGSGGGGSDIQMTQSPSSLSASVGDRVTITCRASSSVSYMNWYQQKPGKAPKRWIYDSSKLASGVPSRFSGSGSGTDFTLTISSLQPEDFATYYCQQWSRNPPTFGQGTKVEIKRS chain 2: QVQLVQSGAEVKKPGASVKVSCKASGYTFTDYYMHWVRQAPGQGLEWMGYFNPYNDYTRYAQKFQGRVTMTRDTSTSTVYMELSSLRSEDTAVYYCARSDGYYDAMDYWGQGTTVTVSSGGGGSGGGGSGGGGSGGGGSDIQMTQSPSSLSASVGDRVTITCRASKSISKYLAWYQQKPGKAPKLLIHSGSSLESGVPSRFSGSGSGTEFTLTISSLQPDDFATYYCQQHIEYPWTFGQGTKVEIKEPKSSDKTHTCPPCPAPPAAAPSVFLFPPKPKDTLMISRTPEVTCVVVDVSHEDPEVKFNWYVDGVEVHNAKTKPREEQYNSTYRVVSVLTVLHQDWLNGKEYKCAVSNKALPAPIEKTISKAKGQPREPQVYTLPPSRDELTKNQVSLSCAVKGFYPSDIAVEWESNGQPENNYKTTPPVLDSDGSFFLVSKLTVDKSRWQQGNVFSCSVMHEALHNHYTQKSLSLSPG | > 208 | 1 | 5 | 22000 | 1 | no binding (tested: 4-6 µM) | 1 | 2400 | > 200 | > 200 | 2000 | no binding (tested: 4-6 µM) | no binding (tested: 4-6 µM) | no binding (tested: 4-6 µM) | no binding (tested: 4-6 µM) |
